Experimental data reported in patent US20160324962A1, “COMPOSITIONS AND METHODS FOR TREATING SARCOMA” (MEDIMMUNE, LLC, priority 2013, published 2016).

Tests used:
Hs729 cells = assay: In vitro cell proliferation (CellTiter-Glo), no exogenous IGF; type: cell-based; conditions: 3 days
Experimental: (§1) To determine the effect of treatment with MEDI-573 antibody on the growth of tumor cells, three rhabdomyosarcoma cell lines (RD, SJCRH30, and Hs729); three Ewing's sarcoma cell lines (RD-ES, TC-71, and SK-ES-1), and four osteosarcoma cell lines (SJSA-1, KHOS, MG-63, and SAOS2) were treated with MEDI-573, an anti-IGF antibody, in the absence of exogenous IGF-1 or IGF-2.
(§2) Sarcoma cell lines were cultured overnight in regular growth medium. The following day, medium containing 0.1% charcoal stripped fetal bovine serum (FBS) was added and the cells incubated overnight. The next day, cells were treated with various amounts of MEDI-573 and the cultures incubated for 3 days. Proliferation was quantified using the CellTiter-Glo (CTG) reagent (Promega, Madison, Wis.).

KHOS cells = assay: as above; type: cell-based; conditions: 3 days
Experimental: as §1, §2

MG-63 cells = assay: as above; type: cell-based; conditions: 3 days
Experimental: as §1, §2

RD-ES cells = assay: as above; type: cell-based; conditions: 3 days
Experimental: as §1, §2

SAOS2 cells = assay: as above; type: cell-based; conditions: 3 days
Experimental: as §1, §2

SJCRH30 cells = assay: as above; type: cell-based; conditions: 3 days
Experimental: as §1, §2

SK-ES-1 cells = assay: as above; type: cell-based; conditions: 3 days
Experimental: as §1, §2

TC-71 cells = assay: as above; type: cell-based; conditions: 3 days
Experimental: as §1, §2

[1] = test system: RD-ES (Ewing's sarcoma) xenografts; assay: Xenograft efficacy study in mice; type: in vivo
Source text: (§3) Although proliferation of SK-ES-1 and SJCRH30 cells was inhibited by MEDI-573 in vitro in the absence of exogenous IGFs, the in vivo growth of these two models was not effected by MEDI-573 treatment.
(§4) The combination treatments were tolerated as no significant body weight loss was observed (FIG. 17B).
For in vivo efficacy studies, five million sarcoma cells in 50% matrigel were inoculated subcutaneously into each female athymic nude mice. When tumors reach approximately 150-200 mm^3, mice were randomly assigned into groups (10 mice per group). MEDI-573 was administrated intraperitoneally twice per week at indicated doses. The dose regimen for AZD2014 was oral once every day, for rapamycin was intraperitoneal injection every 3 days. Tumor volumes were measured twice weekly with calipers. Tumor growth inhibition was calculated on the last day of study relative to the initial and final mean tumor volume of the control group.

[2] = Body weight / tolerability in xenograft mice; type: in vivo; conditions: MEDI-573 alone
Source text: as §3, §4

IR-A phosphorylation = assay: pIR-A assay in sarcoma cells (MSD); type: cell-based
Experimental: When exogenous IGF-1 or IGF-2 was added to cells, there was an induction of phosphorylation of IGF-1R and IR-A in all cells examined.
The sarcoma lines were cultured overnight in complete medium. The following day, medium containing 0.1% charcoal stripped fetal bovine serum (FBS) was added to the cultures and the cultures incubated overnight. The next day, cells were treated with various treatments for 5 minutes. Media was removed; cells were washed and lysed with 1.0% Triton X lysis buffer with protease and phosphatase inhibitors. Approximately 8-20 μg of total protein was loaded on MSD 96-Well MULTI-SPOT plates and the level of total and phosphorylated IGF-1R, IR-A and IRS-1 protein was determined using the Insulin Signaling Panel (total protein) and Insulin Signaling Panel (phosphoprotein) Whole Cell Lysate kits according to the manufacturers protocol. The level of total and phosphorylated AKT was determined using the Phospho (Ser473)/Total AKT Assay Whole Cell Lysate kit according to manufacturer's standard protocol.

human IGF-1 = target: T1, human IGF-1 (Homo sapiens, UniProt P05019); assay: IGF levels in tumor and plasma after injection of human IGF; type: in vivo, mice; conditions: RD-ES tumor lysates and plasma, intraperitoneal pretreatment for 6 hours, 15 min after IGF-1 injection
T1 construct: purchased R&D Systems (Minneapolis, Minn.)
Experimental: (§5) Thus, human IGF-1 and IGF-2 (IGF-1/-2) were injected into mice in an attempt to understand the role of IGF ligands in driving tumor growth when delivered by endocrine or paracrine secretion, and the effect of MEDI-573 in inhibiting this function. Fifteen minutes after IGF-1 or IGF-2 injection, high levels of IGF-1 or IGF-2 were detected both in RD-ES tumor and plasma.
(§6) For in vivo mechanism of action (MOA) studies, when tumors reached approximately 400 mm^3, a single dose of MEDI-573 was given. Tumor and plasma samples were collected 4 hr after dosing to assess the effect of MEDI-573 on autocrine IGF signaling. In another set of mice, 6 hr after MEDI-573 dosing, human IGF-1 or IGF-2 was injected by tail-vein. Tumor and plasma samples were collected 15 min after IGFs injection to assess the effect of MEDI-573 on IGF-1/-2 induced signaling.

human IGF-2 = target: T2, human IGF-2 (Homo sapiens, UniProt P01344); assay: as above; type: in vivo, mice; conditions: RD-ES tumor lysates and plasma, intraperitoneal pretreatment for 6 hours, 15 min after IGF-2 injection
T2 construct: purchased R&D Systems (Minneapolis, Minn.)
Experimental: as §5, §6

IGF 1R phosphorylation = assay: IGF-stimulated phosphorylation in engineered NIH-3T3 cell lines; type: cell-based; conditions: NIH-3T3 cell lines expressing human IGF-1R and human IGF-1/-2
Source text: (§7) MEDI 573 selectively binds to human insulin-like growth factor (hIGF)-I and hIGF-2 and […]. MEDI-573 targets the IGF-1 and IGF-2 ligands and thereby inhibits IGF-mediated signal transduction. […] Furthermore, MEDI-573 has potential to achieve this without perturbing glucose homeostasis, which has been an adverse effect observed with investigational agents that target IGF 1R. The results of in vitro studies have shown that MEDI-573 inhibited both IGF-1 and IGF-2-stimulated phosphorylation of IGF 1R and that of downstream signaling proteins including Akt and MAPK in a number of engineered mouse embryonic fibroblast NIH-3T3 cell lines transfected to express human IGF-1R and either human IGF-1/-2. Furthermore, MEDI-573 inhibited autocrine phosphorylation of these signaling molecules.

clone 32 (C32) tumors = assay: Growth of implanted tumors in mice; type: in vivo; conditions: C32 tumors overexpressing hIGF II and hIGF-1R
Source text: as §7

clone P12 (P12) tumors = assay: Growth of implanted tumors in mice; type: in vivo; conditions: P12 tumors overexpressing hIGF-1 and hIGF-1R
Source text: as §7

T1 sequence (P05019 49-118 limits assumed): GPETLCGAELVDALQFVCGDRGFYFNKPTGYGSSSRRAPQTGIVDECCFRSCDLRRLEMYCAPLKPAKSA
T2 sequence (P01344 25-91 limits assumed): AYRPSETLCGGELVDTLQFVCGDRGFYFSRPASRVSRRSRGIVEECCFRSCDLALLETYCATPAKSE

IC50 (SK-ES-1 cells): 3.2 µM
reduction of IGF-1 levels (human IGF-1): approximately 50%
reduction of IGF-2 levels (human IGF-2): almost completely
B1: MEDI-573: fully human monoclonal IgG2 lambda antibody that binds IGF-2 with cross reactivity to IGF-1; hybridoma 7.159.2, ATCC PTA-7424 (antibody)
heavy: QVQLVQSGAEVKKPGASVKVSCKASGYTFTSYDINWVRQATGQGLEWMGWMNPNSGNTGYAQKFQGRVTMTRNTSISTAYMELSSLRSEDTAVYYCARDPYYYYYGMDVWGQGTTVTVSSASTKGPSVFPLAPCSRSTSESTAALGCLVKDYFPEPVTVSWNSGALTSGVHTFPAVLQSSGLYSLSSVVTVPSSNFGTQTYTCNVDHKPSNTKVDKTVERKCCVECPPCPAPPVAGPSVFLFPPKPKDTLMISRTPEVTCVVVDVSHEDPEVQFNWYVDGVEVHNAKTKPREEQFNSTFRVVSVLTVVHQDWLNGKEYKCKVSNKGLPAPIEKTISKTKGQPREPQVYTLPPSREEMTKNQVSLTCLVKGFYPSDIAVEWESNGQPENNYKTTPPMLDSDGSFFLYSKLTVDKSRWQQGNVFSCSVMHEALHNHYTQKSLSLSPGK
light: QSVLTQPPSVSAAPGQKVTISCSGSSSNIENNHVSWYQQLPGTAPKLLIYDNNKRPSGIPDRFSGSKSGTSATLGITGLQTGDEADYYCETWDTSLSAGRVFGGGTKLTVLGQPKAAPSVTLFPPSSEELQANKATLVCLISDFYPGAVTVAWKADSSPVKAGVETTTPSKQSNNKYAASSYLSLTPEQWKSHRSYSCQVTHEGSTVEKTVAPTECS
IC50 (μM) (Hs729 cells): Inactive
IC50 (μM) (KHOS cells): Inactive
IC50 (μM) (MG-63 cells): Inactive
IC50 (RD-ES cells): 6.9 µM
IC50 (μM) (SAOS2 cells): Inactive
IC50 (SJCRH30 cells): 3.2 µM
IC50 (TC-71 cells): 2.7 µM
tumor growth inhibition ([1]; RD-ES xenograft model, AZD2014 combination study (FIG. 16A)): 52%
tumor growth inhibition ([1]; RD-ES xenograft model, rapamycin combination study (FIG. 17A)): 59%
tumor growth inhibition ([1]; RD-ES xenografts, 10 mg/kg twice weekly intraperitoneally): 25%
tumor growth inhibition ([1]; RD-ES xenografts, 30 mg/kg twice weekly intraperitoneally): 44%
tumor growth inhibition ([1]; RD-ES xenografts, 60 mg/kg twice weekly intraperitoneally): 52%
body weight [2]: no loss of body weight was observed
autophosphorylation of IR-A (IR-A phosphorylation; KHOS cells): not in KHOS cells
autophosphorylation of IR-A (IR-A phosphorylation; RD-ES, TC-71, SK-ES-1, and SJSA-1 cells): inhibited autophosphorylation
IGF-1/-2-induced activation of IR-A (IR-A phosphorylation; pretreatment with MEDI-573, exogenous IGF-1 or IGF-2): inhibited
IGF-1 and IGF-2-stimulated phosphorylation of IGF 1R (IGF 1R phosphorylation): inhibited
growth of implanted tumors (clone 32 (C32) tumors): significantly inhibited the growth
growth of implanted tumors (clone P12 (P12) tumors): significantly inhibited the growth
